T1: PhNob1Zn (Pyrococcus horikoshii, UniProt O58440 121-161)
T1 chain: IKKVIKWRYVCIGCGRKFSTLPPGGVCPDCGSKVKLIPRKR

T2: PhNob1 (Pyrococcus horikoshii, UniProt O58440 1-161)
T2 sequence: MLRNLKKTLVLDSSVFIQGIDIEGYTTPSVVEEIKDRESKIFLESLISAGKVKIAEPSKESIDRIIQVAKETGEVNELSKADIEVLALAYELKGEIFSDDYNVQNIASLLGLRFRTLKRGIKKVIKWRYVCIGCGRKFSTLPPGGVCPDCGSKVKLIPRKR


Legend:
PhNob1Zn [1] = target: T1, PhNob1Zn; assay: fluorescence anisotropy
PhNob1 = target: T2, PhNob1; assay: fluorescence anisotropy
PhNob1Zn [2] = target: T1, PhNob1Zn; assay: NMR titration

Binder | Kd (PhNob1Zn [1]) | Kd (PhNob1) | Kd (PhNob1Zn [2])
GACUGCCGGCGAUAAGCCGGAGGAAG (structured_RNA) [PhH40 (helix 40)] | 2300 ± 100 nM | 2000 ± 100 nM | 
GACUGCCGGCGAUAAGCCGGAGGAAG (structured_RNA) [PhH40 unlabeled (gel filtration, NMR)] |  |  | < 1000 nM
UACAGGGCCCAUUGGGGCCCUGUA (structured_RNA) [ScH16 (stabilized)] | 1500 ± 200 nM |  | 
CCGGCGAUAAGCCGG (structured_RNA) [PhH40short (H40S)] | 3100 ± 200 nM |  | 

Source: publication PMC3326319
